Measurements taken from patent US20240350835A1 (AMBRX, published 2024).

Molecular target: prostate specific membrane antigen (PSMA) (UniProt Q04609 1-750, limits assumed)
Test: cell-based or functional assay

Chain of prostate specific membrane antigen (PSMA) (Q04609 whole entry): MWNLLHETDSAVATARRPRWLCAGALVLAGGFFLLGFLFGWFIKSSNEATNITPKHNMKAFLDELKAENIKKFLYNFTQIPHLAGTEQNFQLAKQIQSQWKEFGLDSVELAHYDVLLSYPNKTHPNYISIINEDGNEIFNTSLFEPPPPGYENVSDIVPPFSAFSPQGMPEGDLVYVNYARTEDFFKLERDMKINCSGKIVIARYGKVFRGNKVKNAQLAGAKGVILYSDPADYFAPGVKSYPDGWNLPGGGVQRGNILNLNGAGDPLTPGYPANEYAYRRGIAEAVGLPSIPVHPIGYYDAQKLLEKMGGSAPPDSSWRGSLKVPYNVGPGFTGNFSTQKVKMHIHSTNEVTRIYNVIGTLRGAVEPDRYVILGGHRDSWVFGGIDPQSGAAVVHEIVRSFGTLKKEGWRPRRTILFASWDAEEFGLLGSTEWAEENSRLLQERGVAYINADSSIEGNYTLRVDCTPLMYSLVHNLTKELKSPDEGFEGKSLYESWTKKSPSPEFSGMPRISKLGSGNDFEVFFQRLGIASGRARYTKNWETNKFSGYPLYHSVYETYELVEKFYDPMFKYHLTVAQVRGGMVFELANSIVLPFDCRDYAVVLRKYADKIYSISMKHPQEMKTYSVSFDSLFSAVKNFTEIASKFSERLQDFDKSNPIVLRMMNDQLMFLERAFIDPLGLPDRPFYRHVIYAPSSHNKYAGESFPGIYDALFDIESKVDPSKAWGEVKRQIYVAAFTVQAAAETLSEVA

B1: Humanized Anti-PSMA Antibody Variant 1 ADC, MMAE payload, Non-Cleavable (PEG3) linker (antibody, human IgG1, kappa, V domains shown)
VH: QVQLVQSGAEVKKPGASVKVSCKASGYTFTEYTIHWVRQAPGQRLEWMGNINPNNGGTTYNQKFEDRVTITRDTSASTAYMELSSLRSEDTAVYYCAAGWNFDYWGQGTTLTVSS
VL: DIQLTQSPSFLSASVGDRVTITCKASQDVGTAVDWYQQKPGKAPKLLIYWASTRHTGVPSRFSGSGSGTEFTLTISSLQPEDFATYYCQQYNSYPLTFGGGTKVEIKR
modifications: para-acetyl phenylalanine (pAF) at position A114 (Kabat numbering; first residue of the heavy chain constant region), conjugated to non-cleavable (PEG3) MMAE drug-linker
Cell Killing (%), C4-2 cell line: 64.5%
IC50 (nM), in vitro cell killing in C4-2 cell line (Cell Titer Glo, 96 h): 11.3 nM

B2: Humanized Anti-PSMA Antibody Variant 2 ADC, MMAF payload, Non-Cleavable (PEG3) linker (antibody, human IgG1, kappa, V domains shown)
VH: QVQLVQSGAEVKKPGASVKVSCKASGYTFTEYTIHWVRQAPGQRLEWMGNINPNNGGTTYNQKFEDRVTITRDTSASTAYMELSSLRSEDTAVYYCAAGWNFDYWGQGTTLTVSS
VL: DIQLTQSPSFLSASVGDRVTITCKASQDVGTAVDWYQQKPGKAPKLLIYWASTRHTGVPSRFSGSGSGTEFTLTISSLQSEDFATYYCQQYNSYPLTFGGGTKVEIKR
modifications: para-acetyl phenylalanine (pAF) at position A114 (Kabat numbering; first residue of the heavy chain constant region), conjugated to non-cleavable (PEG3) MMAF drug-linker
Cell Killing (%), C4-2 cell line: 81%
IC50 (nM), in vitro cell killing in C4-2 cell line (Cell Titer Glo, 96 h): 0.503 nM

B3: Chimeric Anti-PSMA Antibody ADC, MMAF payload, Non-Cleavable (PEG3) linker (antibody, human IgG1, kappa, V domains shown)
VH: EVQLQQSGPELVKPGTSVRISCKTSGYTFTEYTIHWVKQSHGKSLEWIGNINPNNGGTTYNQKFEDKATLTVDKSSSTAYMELRSLTSEDSAVYYCAAGWNFDYWGQGTTLTVSS
VL: DIVMTQSHKFMSTSVGDRVSIICKASQDVGTAVDWYQQKPGQSPKLLIYWASTRHTGVPDRFTGSGSGTDFTLTITNVQSEDLADYFCQQYNSYPLTFGAGTKVEIKR
modifications: para-acetyl phenylalanine (pAF) at position A114 (Kabat numbering; first residue of the heavy chain constant region), conjugated to non-cleavable (PEG3) MMAF drug-linker
Cell Killing (%), C4-2 cell line: 89.5%
IC50 (nM), in vitro cell killing in C4-2 cell line (Cell Titer Glo, 96 h): 0.295 nM

B4: Humanized Anti-PSMA Antibody Variant 1 ADC, MMAF payload, Cleavable (Val-Citruline-PEG1) linker (antibody, human IgG1, kappa, V domains shown)
VH: QVQLVQSGAEVKKPGASVKVSCKASGYTFTEYTIHWVRQAPGQRLEWMGNINPNNGGTTYNQKFEDRVTITRDTSASTAYMELSSLRSEDTAVYYCAAGWNFDYWGQGTTLTVSS
VL: DIQLTQSPSFLSASVGDRVTITCKASQDVGTAVDWYQQKPGKAPKLLIYWASTRHTGVPSRFSGSGSGTEFTLTISSLQPEDFATYYCQQYNSYPLTFGGGTKVEIKR
modifications: para-acetyl phenylalanine (pAF) at position A114 (Kabat numbering; first residue of the heavy chain constant region), conjugated to cleavable (Val-Citruline-PEG1) MMAF drug-linker
Cell Killing (%), C4-2 cell line: 91%
IC50 (nM), in vitro cell killing in C4-2 cell line (Cell Titer Glo, 96 h): 0.066 nM

B5: Humanized Anti-PSMA Antibody Variant 2 ADC, MMAF payload, Cleavable (Val-Citruline-PEG1) linker (antibody, human IgG1, kappa, V domains shown)
VH: QVQLVQSGAEVKKPGASVKVSCKASGYTFTEYTIHWVRQAPGQRLEWMGNINPNNGGTTYNQKFEDRVTITRDTSASTAYMELSSLRSEDTAVYYCAAGWNFDYWGQGTTLTVSS
VL: DIQLTQSPSFLSASVGDRVTITCKASQDVGTAVDWYQQKPGKAPKLLIYWASTRHTGVPSRFSGSGSGTEFTLTISSLQSEDFATYYCQQYNSYPLTFGGGTKVEIKR
modifications: para-acetyl phenylalanine (pAF) at position A114 (Kabat numbering; first residue of the heavy chain constant region), conjugated to cleavable (Val-Citruline-PEG1) MMAF drug-linker
Cell Killing (%), C4-2 cell line: 91%
IC50 (nM), in vitro cell killing in C4-2 cell line (Cell Titer Glo, 96 h): 0.051 nM

B6: Chimeric Anti-PSMA Antibody ADC, MMAF payload, Cleavable (Val-Citruline-PEG1) linker (antibody, human IgG1, kappa, V domains shown)
VH: EVQLQQSGPELVKPGTSVRISCKTSGYTFTEYTIHWVKQSHGKSLEWIGNINPNNGGTTYNQKFEDKATLTVDKSSSTAYMELRSLTSEDSAVYYCAAGWNFDYWGQGTTLTVSS
VL: DIVMTQSHKFMSTSVGDRVSIICKASQDVGTAVDWYQQKPGQSPKLLIYWASTRHTGVPDRFTGSGSGTDFTLTITNVQSEDLADYFCQQYNSYPLTFGAGTKVEIKR
modifications: para-acetyl phenylalanine (pAF) at position A114 (Kabat numbering; first residue of the heavy chain constant region), conjugated to cleavable (Val-Citruline-PEG1) MMAF drug-linker
Cell Killing (%), C4-2 cell line: 89.5%
IC50 (nM), in vitro cell killing in C4-2 cell line (Cell Titer Glo, 96 h): 0.047 nM

B7: Humanized Anti-PSMA Antibody Variant 1 ADC, MMAF payload, Short Cleavable (Valine-Citruline-Acetyl) linker (antibody, human IgG1, kappa, V domains shown)
VH: QVQLVQSGAEVKKPGASVKVSCKASGYTFTEYTIHWVRQAPGQRLEWMGNINPNNGGTTYNQKFEDRVTITRDTSASTAYMELSSLRSEDTAVYYCAAGWNFDYWGQGTTLTVSS
VL: DIQLTQSPSFLSASVGDRVTITCKASQDVGTAVDWYQQKPGKAPKLLIYWASTRHTGVPSRFSGSGSGTEFTLTISSLQPEDFATYYCQQYNSYPLTFGGGTKVEIKR
modifications: para-acetyl phenylalanine (pAF) at position A114 (Kabat numbering; first residue of the heavy chain constant region), conjugated to short cleavable (Valine-Citruline-Acetyl) MMAF drug-linker
Cell Killing (%), C4-2 cell line: 92%
IC50 (nM), in vitro cell killing in C4-2 cell line (Cell Titer Glo, 96 h): 0.064 nM

B8: Humanized Anti-PSMA Antibody Variant 2 ADC, MMAF payload, Short Cleavable (Valine-Citruline-Acetyl) linker (antibody, human IgG1, kappa, V domains shown)
VH: QVQLVQSGAEVKKPGASVKVSCKASGYTFTEYTIHWVRQAPGQRLEWMGNINPNNGGTTYNQKFEDRVTITRDTSASTAYMELSSLRSEDTAVYYCAAGWNFDYWGQGTTLTVSS
VL: DIQLTQSPSFLSASVGDRVTITCKASQDVGTAVDWYQQKPGKAPKLLIYWASTRHTGVPSRFSGSGSGTEFTLTISSLQSEDFATYYCQQYNSYPLTFGGGTKVEIKR
modifications: para-acetyl phenylalanine (pAF) at position A114 (Kabat numbering; first residue of the heavy chain constant region), conjugated to short cleavable (Valine-Citruline-Acetyl) MMAF drug-linker
Cell Killing (%), C4-2 cell line: 91%
IC50 (nM), in vitro cell killing in C4-2 cell line (Cell Titer Glo, 96 h): 0.053 nM

B9: Chimeric Anti-PSMA Antibody ADC, MMAF payload, Short Cleavable (Valine-Citruline-Acetyl) linker (antibody, human IgG1, kappa, V domains shown)
VH: EVQLQQSGPELVKPGTSVRISCKTSGYTFTEYTIHWVKQSHGKSLEWIGNINPNNGGTTYNQKFEDKATLTVDKSSSTAYMELRSLTSEDSAVYYCAAGWNFDYWGQGTTLTVSS
VL: DIVMTQSHKFMSTSVGDRVSIICKASQDVGTAVDWYQQKPGQSPKLLIYWASTRHTGVPDRFTGSGSGTDFTLTITNVQSEDLADYFCQQYNSYPLTFGAGTKVEIKR
modifications: para-acetyl phenylalanine (pAF) at position A114 (Kabat numbering; first residue of the heavy chain constant region), conjugated to short cleavable (Valine-Citruline-Acetyl) MMAF drug-linker
Cell Killing (%), C4-2 cell line: 94.5%
IC50 (nM), in vitro cell killing in C4-2 cell line (Cell Titer Glo, 96 h): 0.049 nM
